The target of test [1] is CNX-his antigen (Genscript) (human) (UniProt P27824). The test can be described thus: ELISA with serial dilutions of the antibody on coated His-tagged human CNX. A general note: ELISA stands for enzyme-linked immunosorbent assay.
Test [2] has as its target CNX-mcherry fluorescent protein expressed in Huh7 cells. The test is described as follows: immunofluorescence, Huh7 CNX-mcherry cells minus plain Huh7 cells, Alexa-coupled secondary.
In test [3] the target is Recombinant human CANX protein fused with the Fc region of human IgG1 at the C-terminus (HuCANX_hFc) (human) (UniProt P27824). The test can be described thus: ELISA, IgG1 coated 2 ug/ml, biotinylated antigen titrated (EC50 is of the antigen), streptavidin-HRP; curve is flat, value lies beyond the range shown.
For test [4], the target named is CNX-mcherry fluorescent protein expressed in Huh7 cells. The test can be described thus: immunofluorescence, Huh7 CNX-mcherry cells minus plain Huh7 cells, anti-human Alexa 647.
CNX-mcherry fluorescent protein expressed in Huh7 cells, sequence (P27824 21-592): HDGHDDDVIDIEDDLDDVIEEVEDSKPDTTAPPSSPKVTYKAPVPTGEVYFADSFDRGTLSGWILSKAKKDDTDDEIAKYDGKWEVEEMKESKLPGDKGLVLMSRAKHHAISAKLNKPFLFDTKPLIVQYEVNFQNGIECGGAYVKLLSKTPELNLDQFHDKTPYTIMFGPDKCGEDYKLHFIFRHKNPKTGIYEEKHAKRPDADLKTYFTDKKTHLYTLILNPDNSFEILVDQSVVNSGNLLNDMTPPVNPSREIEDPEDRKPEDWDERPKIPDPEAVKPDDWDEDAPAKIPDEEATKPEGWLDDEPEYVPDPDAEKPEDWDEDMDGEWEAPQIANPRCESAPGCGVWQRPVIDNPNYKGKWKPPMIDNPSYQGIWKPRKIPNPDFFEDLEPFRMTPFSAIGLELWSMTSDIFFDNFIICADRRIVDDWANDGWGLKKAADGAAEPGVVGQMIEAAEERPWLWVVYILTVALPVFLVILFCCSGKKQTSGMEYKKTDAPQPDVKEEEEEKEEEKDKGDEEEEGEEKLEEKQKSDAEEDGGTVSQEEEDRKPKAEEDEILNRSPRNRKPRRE

CNX-his antigen (Genscript) (human), sequence (P27824 21-481 limits assumed): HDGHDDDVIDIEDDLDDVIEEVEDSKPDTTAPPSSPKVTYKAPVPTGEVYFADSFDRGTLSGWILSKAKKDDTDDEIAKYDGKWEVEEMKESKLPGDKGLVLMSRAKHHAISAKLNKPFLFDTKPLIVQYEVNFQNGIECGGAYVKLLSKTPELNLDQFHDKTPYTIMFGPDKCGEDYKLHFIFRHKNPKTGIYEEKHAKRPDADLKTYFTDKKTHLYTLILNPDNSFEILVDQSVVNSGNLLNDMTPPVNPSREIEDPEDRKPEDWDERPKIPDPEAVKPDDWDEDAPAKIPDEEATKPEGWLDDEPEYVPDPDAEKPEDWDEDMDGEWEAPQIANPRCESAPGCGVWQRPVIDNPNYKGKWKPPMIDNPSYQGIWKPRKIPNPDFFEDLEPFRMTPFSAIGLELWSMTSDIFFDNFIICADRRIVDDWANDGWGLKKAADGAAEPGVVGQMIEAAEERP
Recombinant human CANX protein fused with the Fc region of human IgG1 at the C-terminus (HuCANX_hFc) (human), sequence (P27824 21-481 limits assumed): as above

As usually defined, the EC50 (read off the curve) is the concentration at which the effect is half-maximal. High values mean weaker potency, low ones greater potency. Regarding CNX ab10286 (Abcam) (antibody), the EC50 (read off the curve) in test [1] was found to be 0.2 mg/L. For the substance CNX antibody ab22595 (Abcam), the Intensity (CNX+ cells - CNX -ve) in test [2] came to 3630. Usually EC50 stands for the midpoint of the concentration-response curve. Regarding Neg Control (antibody), the EC50 in test [3] was found to be 0.147 µM. In test [4], negative control human IgG (antibody) showed an Intensity (CNX+ cells - CNX -ve) of 107.

For the origin of these results see patent US20260250378A1.
